# Assays:
# Test in all cases: cell-based or functional assay
# [1] = target: T1, HIV-1 envelope protein of HIV-1 strain pNL4-3 (CXCR4 tropism) (HIV-1 strain pNL4-3)
# [2] = target: T2, HIV-1 envelope protein of HIV-1 strain pAD-8 (CCR5 tropism) (HIV-1 strain pAD-8)
# [3] = target: T1, HIV-1 envelope protein of HIV-1 strain …; remark: listed apart in the source
# [4] = target: T2, HIV-1 envelope protein of HIV-1 strain …; remark: listed apart in the source
# [5] = target: T1, HIV-1 envelope protein of HIV-1 strain …; remark: listed apart in the source
# [6] = target: T2, HIV-1 envelope protein of HIV-1 strain …; remark: listed apart in the source
Binder,"Neutralization percentage; serum of mice injected with AAV vector, serum stock volume 0.005 uL; TZM-bl luciferase [1] [%]","Neutralization percentage; serum of mice injected with AAV vector, serum stock volume 0.05 uL; TZM-bl luciferase [1] [%]","Neutralization percentage; serum of mice injected with AAV vector, serum stock volume 0.5 uL; TZM-bl luciferase [1] [%]","Neutralization percentage; serum of mice injected with AAV vector, serum stock volume 0.005 uL; TZM-bl luciferase [2] [%]","Neutralization percentage; serum of mice injected with AAV vector, serum stock volume 0.05 uL; TZM-bl luciferase [2] [%]","Neutralization percentage; serum of mice injected with AAV vector, serum stock volume 0.5 uL; TZM-bl luciferase [2] [%]","IC50 for neutralizing HIV-1 strain pNL4-3 (CXCR4 tropism); purified antibody, TZM-bl luciferase [3] [pM]","IC50 for neutralizing HIV-1 strain pAD-8 (CCR5 tropism); purified antibody, TZM-bl luciferase [4] [pM]","Neutralization percentage; AAV vector-transduced C2C12 supernatant, antibody concentration 2.5 ng/ml; TZM-bl luciferase [5] [%]","Neutralization percentage; AAV vector-transduced C2C12 supernatant, antibody concentration 5 ng/ml; TZM-bl luciferase [5] [%]","Neutralization percentage; AAV vector-transduced C2C12 supernatant, antibody concentration 10 ng/ml; TZM-bl luciferase [5] [%]","Neutralization percentage; AAV vector-transduced C2C12 supernatant, antibody concentration 2.5 ng/ml; TZM-bl luciferase [6] [%]","Neutralization percentage; AAV vector-transduced C2C12 supernatant, antibody concentration 5 ng/ml; TZM-bl luciferase [6] [%]","Neutralization percentage; AAV vector-transduced C2C12 supernatant, antibody concentration 10 ng/ml; TZM-bl luciferase [6] [%]"
Anti-HIV tritropic neutralizing antibody-like molecule KL-BsHIV01-003-02 (other) SELTQDPAVSVALKQTVTITCRGDSLRSHYASWYQKKPGQAPVLLFYGKNNRPSGIPDRFSGSASGNRASLTITGAQAEDEADYYCSSRDKSGSRLSVFGGGTKLTVLGGGGSGGGGSGGGGSEVRLRESGGGLVKPGGSLRLSCSASGFDFDNAWMTWVRQPPGKGLEWVGRITGPGEGWSVDYAESVKGRFTISRDNTKNTLYLEMNNVRTEDTGYYFCARTGKYYDFWFGYPPGEEYFQDWGQGTLVIVSSGGGGSGGGGSGGGGSGGGGSGGGGSDIVMTQSPDSLAVSLGERVTMNCKSSQSLLYSTNQKNYLAWYQQKPGQSPKLLIYWASTRESGVPDRFSGSGSGTDFTLTISSVQAEDVAVYYCQQYYSYRTFGGGTKLEIKRTVAGGGGSGGGGSGGGGSQVQLQQSGPEVVKPGASVKMSCKASGYTFTSYVIHWVRQKPGQGLDWIGYINPYNDGTDYDEKFKGKATLTSDTSTSTAYMELSSLRSEDTAVYYCAREKDNYATGAWFAYWGQGTLVTVSSGGGGSGGGGSGGGGSGGGGSGGGGSWEQKIEELLKKAEEQQKKNEEELKKLEK,23.4,56.7,99.4,-11.7,-6.85,62.5,0.2,3.1,101,101,100,100,100,100
Anti-HIV amphotropic neutralizing antibody-like molecule KL-BsHIV01-02 (bispecific antibody) SELTQDPAVSVALKQTVTITCRGDSLRSHYASWYQKKPGQAPVLLFYGKNNRPSGIPDRFSGSASGNRASLTITGAQAEDEADYYCSSRDKSGSRLSVFGGGTKLTVLGGGGSGGGGSGGGGSEVRLRESGGGLVKPGGSLRLSCSASGFDFDNAWMTWVRQPPGKGLEWVGRITGPGEGWSVDYAESVKGRFTISRDNTKNTLYLEMNNVRTEDTGYYFCARTGKYYDFWFGYPPGEEYFQDWGQGTLVIVSSGGGGSGGGGSGGGGSGGGGSGGGGSDIVMTQSPDSLAVSLGERVTMNCKSSQSLLYSTNQKNYLAWYQQKPGQSPKLLIYWASTRESGVPDRFSGSGSGTDFTLTISSVQAEDVAVYYCQQYYSYRTFGGGTKLEIKRTVAGGGGSGGGGSGGGGSQVQLQQSGPEVVKPGASVKMSCKASGYTFTSYVIHWVRQKPGQGLDWIGYINPYNDGTDYDEKFKGKATLTSDTSTSTAYMELSSLRSEDTAVYYCAREKDNYATGAWFAYWGQGTLVTVSS,27.7,79,100,-15.7,-4.43,81.7,,,100,101,100,100,100,100

# Reference: US20240352096A1 (KANGLIN BIOTECHNOLOGY HANGZHOU, published 2024)
